Data published in US20250026815A1 (GAN AND LEE PHARMACEUTICALS, published 2025).
Read-outs that look alike come from different tables or passages of the source.

Tests used:
[1] = target: T1, recombinant RSV-F protein (RSV A2 strain fusion (F) protein with added His tag) (human respiratory syncytial virus, A2 …, UniProt P03420 26-524); assay: SPR (Biacore), antibody captured, RSV-F as analyte
T1 construct: also called RSV-F recombinant protein

[2] = target: RSV-F protein of RSV A Long virus (as carried by the live virus in the neutralisation assay) (human respiratory syncytial virus, …, UniProt P12568 26-574); assay: cell-based or functional assay
[3] = target: RSV-F protein of RSV A2 virus (as carried by the live virus in the neutralisation assay) (human respiratory syncytial virus, …, UniProt P03420 26-574); assay: cell-based or functional assay
RSV-F protein of RSV A2 virus (as carried by the live virus in the neutralisation assay), sequence (P03420 26-574): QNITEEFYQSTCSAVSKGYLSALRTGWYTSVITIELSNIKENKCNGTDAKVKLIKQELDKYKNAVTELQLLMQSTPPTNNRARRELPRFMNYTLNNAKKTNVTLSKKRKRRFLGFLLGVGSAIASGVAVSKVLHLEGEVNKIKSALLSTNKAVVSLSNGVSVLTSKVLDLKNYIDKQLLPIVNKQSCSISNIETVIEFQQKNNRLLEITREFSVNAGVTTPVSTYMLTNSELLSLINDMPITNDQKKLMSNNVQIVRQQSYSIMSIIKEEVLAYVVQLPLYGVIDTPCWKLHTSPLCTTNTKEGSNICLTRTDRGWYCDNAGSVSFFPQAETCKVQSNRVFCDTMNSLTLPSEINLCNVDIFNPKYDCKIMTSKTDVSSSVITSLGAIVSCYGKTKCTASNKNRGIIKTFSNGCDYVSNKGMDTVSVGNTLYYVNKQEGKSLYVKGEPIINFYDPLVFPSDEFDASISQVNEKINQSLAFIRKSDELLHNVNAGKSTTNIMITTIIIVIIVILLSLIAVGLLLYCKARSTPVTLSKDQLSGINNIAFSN

[4] = target: RSV-F protein of RSV B9320 virus (as carried by the live virus in the neutralisation assay) (human respiratory syncytial virus, …); assay: cell-based or functional assay
[5] = target: T1, recombinant RSV-F protein (RSV A2 …); assay: SPR (Biacore), antibody captured, RSV-F as analyte; remark: listed apart in the source
[6] = target: T1, recombinant RSV-F protein (RSV A2 …); assay: SPR (Biacore), antibody captured, RSV-F as analyte; column head prints nM, Kd/Ka gives M

T1 sequence (P03420 26-109, chain 1 of 2): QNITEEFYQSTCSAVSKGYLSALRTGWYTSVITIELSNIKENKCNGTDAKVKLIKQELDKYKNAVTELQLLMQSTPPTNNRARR
T1 sequence (P03420 137-524, chain 2 of 2): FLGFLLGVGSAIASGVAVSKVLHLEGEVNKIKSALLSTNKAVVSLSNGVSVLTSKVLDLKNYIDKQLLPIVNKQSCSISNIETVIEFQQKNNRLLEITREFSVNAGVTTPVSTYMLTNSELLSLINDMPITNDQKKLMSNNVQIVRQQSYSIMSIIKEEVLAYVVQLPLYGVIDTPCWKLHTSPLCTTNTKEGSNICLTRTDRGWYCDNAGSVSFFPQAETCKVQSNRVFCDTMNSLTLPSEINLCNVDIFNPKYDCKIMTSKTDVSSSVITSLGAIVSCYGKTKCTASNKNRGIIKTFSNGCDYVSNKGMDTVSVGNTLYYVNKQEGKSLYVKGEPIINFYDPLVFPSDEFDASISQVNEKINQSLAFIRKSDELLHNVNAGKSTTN

Row | Binder | Kd [1] [nM] | koff [1] [s⁻¹] | kon [1] [M⁻¹ s⁻¹] | Absolute IC50, neutralizing RSV A Long (HEp-2 cells, indirect ELISA) [2] [µg/mL] | Absolute IC50, neutralizing RSV A2 (HEp-2 cells, indirect ELISA) [3] [µg/mL] | Absolute IC50, neutralizing RSV B9320 (HEp-2 cells, indirect ELISA) [4] [µg/mL] | koff [5] [s⁻¹] | kon [5] [M⁻¹ s⁻¹] | Kd [6] [nM]
1 | R18-11B1QH (antibody, human IgG1, kappa, V domains shown, also called chimeric antibody of R18-11B1) VH: EVQLEESGPELVKPGASVKISCKSSAQTFSGSWINWVKQRPGQGLEWIGRIFPGDGDTKYNMNFTGKATLTADKSSNTAYMHVSSLTSVDSAVYFCARYDGYYDIGYFDVWGAGTTVTVSS VL: DIVMTQTPASLAVSLGQRATISCRASASVDSYGNKFIHWYQQKPGQPPKLLISLASNLESGVPARFSGSGSRTDFTLTIDPVEADDAATYYCQQTNEDPWTFGGGTKLEIKR | 0.205 | 0.000169 | 824000 | 0.0432 | 0.101 |  |  |  | 
2 | R10-6A11QH (antibody, human IgG1, kappa, V domains shown, also called chimeric antibody of R10-6A11) VH: QVKLEESGPGILQPSQTLSLTCSFSGFSLSTSGMGVSWIRQPSGKGLEWLAHIYWDDDKNYNPSLKSRLTISKDTSRNQVFLKITSVDTADTATYYCARKIYYDYDYALDYWGQGTSVTVSS VL: DIVMTQAAFSNPVTLGTSASISCRSSKSLLHSNGITYLCWFLQKPGQSPQLLIYQMSNLASGVPDRFSGSGSGTDFTLRISRVEAEDVGVYYCAQNLELWTFGGGTKLEIKR |  | 0.000339 | 1.03e+06 | 0.0199 | 0.00745 | 0.266 |  |  | 
3 | R10-19B2QH (antibody, human IgG1, kappa, V domains shown) VH: EVKLQESGPGMLQPSQTLSLTCSFSGFSLSTSGMGVSWIRQPSGKGLEWLAHIYWDDDKNFNPSLRSRLIISKDPSRNQVFLEITSVDTADTATYFCARKLYNDYDYILDYWGQGTSVTVSS VL: DIVMTQAAFSNPVTLGTSASISCRSSKSLLHSNGITYLCWFLQKPGQSPQLLIYQMSNLASGVPDRFSGSGSGTDFTLRISRVEAEDVGVYYCAQNLELWTFGGGTKLEIKR |  |  |  | 0.0102 | 0.012 | 0.021 |  |  | 
4 | R10-10B2QH (antibody, human IgG1, kappa, V domains shown, also called chimeric antibody of R10-10B2) VH: QVQLEESGAELVRSGASVKLSCTASGFNIKDYYIHWVKQRPEQGLEWIGWNDPENGDTEYAPKFQGKATMTADTSSNTVYLQLSSLTSEDSAVYFCKSFDSYLEYWGQGTSVTVSS VL: DIVMTQTTLSLPVNLGDQASISCRSSQSLVHTDGNTFLEWYLQRPGQSPKLLIYKVSIRFSGVPDRFSGSGSGTDFTLKISRVETEDLGVYYCFQGSHVPRTFGGGTKLEIKR | 0.0489 | 3.68e-05 | 753000 | 0.214 | 0.0968 | 0.0915 |  |  | 
5 | R1-11C3QH (antibody, human IgG1, kappa, V domains shown, also called chimeric antibody of R1-11C3) VH: EVQLEESGAELVRSGASVKLSCTASGFNIKDYYMHWVKQRPEQGLEWIGWIDPENGDTEYAPKFQGKATLTADTSSNTAYLQLSTLTSEDNAVYYCNAAYYGDYVEDMDYWGQGTSVTVSS VL: DIVMTQTPLSLSVSLGDQASISCRSSQSIVHSDGNTFLEWYLQKPGQSPKLLIYKVSNRFSGVPDRFSGSGSGTDFTLKISRVEAEDLGVYYCFQASHLPRTFGGGTKLEIKR | 0.0256 | 1.41e-05 | 549000 | 0.316 | 0.118 | 0.0666 |  |  | 
6 | R3-39A3QH (antibody, human IgG1, kappa, V domains shown, also called chimeric antibody of R3-39A3) VH: QVKLEESGPELVKPGASVKISCKASGYAFSSSWVNWVQQRPGQGLEWIGRIYPGDGETKYSGKFRGKATLTADKSSNTVYMQVSSLTSVDSAVYFCAREGGLITSSGYYHAMDYWGQGTSVTVSS VL: DIVLTQSPPSLAVSLGQRATISCRASKSVDSYGNGFMHWYQQKPGQPPKLLIFLASNLESGVPARFSGSGSRTDFTLTIDPVEADDAASYYCQQSDEDPTFGGGTKLEIKR | 0.171 | 0.000115 | 673000 |  | 0.00592 |  |  |  | 
7 | A2-G (antibody, human IgG1, kappa, V domains shown, also called humanized mutant antibody A2-G) VH: QVTLKESGPALVKPTQTLTLTCTFSGFSLSTSGMGVSWIRQPPGKALEWLAHIYWDDDKNFNPSLRSRLTITKDPSKNQVVLTMTNMDPVDTATYFCARKLYNDYDYILDYWGQGTTVTVSS VL: DIVMTQSPLSLPVTPGEPASISCRSSKSLLHSNGITYLGWFLQKPGQSPQLLIYQMSNLASGVPDRFSGSGSGTDFTLKISRVEAEDVGVYYCAQNLELWTFGQGTRLEIKR |  |  |  |  |  |  | 0.000138 | 1.97e+06 | 0.07
8 | A2-I (antibody, V domains shown, also called humanized mutant antibody A2-I) VH: QVTLKESGPALVKPTQTLTLTCTFSGFSLSTSGMGVSWIRQPPGKALEWLAHIYWDDDKNFNPSLRSRLTITKDPSKNQVVLTMTNMDPVDTATYFCARKLYNDYDYILDYWGQGTTVTVSS VL: DIVMTQSPLSLPVTPGEPASISCRSSKSLLHSNGITYLIWFLQKPGQSPQLLIYQMSNLASGVPDRFSGSGSGTDFTLKISRVEAEDVGVYYCAQNLELWTFGQGTRLEIK |  |  |  |  |  |  | 0.000162 | 3.07e+06 | 0.0528
9 | A2-Q (antibody, V domains shown, also called humanized mutant antibody A2-Q) VH: QVTLKESGPALVKPTQTLTLTCTFSGFSLSTSGMGVSWIRQPPGKALEWLAHIYWDDDKNFNPSLRSRLTITKDPSKNQVVLTMTNMDPVDTATYFCARKLYNDYDYILDYWGQGTTVTVSS VL: DIVMTQSPLSLPVTPGEPASISCRSSKSLLHSNGITYLQWFLQKPGQSPQLLIYQMSNLASGVPDRFSGSGSGTDFTLKISRVEAEDVGVYYCAQNLELWTFGQGTRLEIK |  |  |  |  |  |  | 0.000166 | 2.38e+06 | 0.0698
10 | A2-N (antibody, V domains shown, also called humanized mutant antibody A2-N) VH: QVTLKESGPALVKPTQTLTLTCTFSGFSLSTSGMGVSWIRQPPGKALEWLAHIYWDDDKNFNPSLRSRLTITKDPSKNQVVLTMTNMDPVDTATYFCARKLYNDYDYILDYWGQGTTVTVSS VL: DIVMTQSPLSLPVTPGEPASISCRSSKSLLHSNGITYLNWFLQKPGQSPQLLIYQMSNLASGVPDRFSGSGSGTDFTLKISRVEAEDVGVYYCAQNLELWTFGQGTRLEIK |  |  |  |  |  |  | 0.000165 | 1.61e+06 | 0.102
11 | A2-P (antibody, V domains shown, also called humanized mutant antibody A2-P) VH: QVTLKESGPALVKPTQTLTLTCTFSGFSLSTSGMGVSWIRQPPGKALEWLAHIYWDDDKNFNPSLRSRLTITKDPSKNQVVLTMTNMDPVDTATYFCARKLYNDYDYILDYWGQGTTVTVSS VL: DIVMTQSPLSLPVTPGEPASISCRSSKSLLHSNGITYLPWFLQKPGQSPQLLIYQMSNLASGVPDRFSGSGSGTDFTLKISRVEAEDVGVYYCAQNLELWTFGQGTRLEIK |  |  |  |  |  |  | 0.000156 | 3.57e+06 | 0.0438
12 | A2-A (antibody, human IgG1, kappa, V domains shown, also called humanized mutant antibody A2-A) VH: QVTLKESGPALVKPTQTLTLTCTFSGFSLSTSGMGVSWIRQPPGKALEWLAHIYWDDDKNFNPSLRSRLTITKDPSKNQVVLTMTNMDPVDTATYFCARKLYNDYDYILDYWGQGTTVTVSS VL: DIVMTQSPLSLPVTPGEPASISCRSSKSLLHSNGITYLAWFLQKPGQSPQLLIYQMSNLASGVPDRFSGSGSGTDFTLKISRVEAEDVGVYYCAQNLELWTFGQGTRLEIKR |  |  |  |  |  |  | 0.000117 | 2.3e+06 | 0.0509
13 | A2-M (antibody, V domains shown, also called humanized mutant antibody A2-M) VH: QVTLKESGPALVKPTQTLTLTCTFSGFSLSTSGMGVSWIRQPPGKALEWLAHIYWDDDKNFNPSLRSRLTITKDPSKNQVVLTMTNMDPVDTATYFCARKLYNDYDYILDYWGQGTTVTVSS VL: DIVMTQSPLSLPVTPGEPASISCRSSKSLLHSNGITYLMWFLQKPGQSPQLLIYQMSNLASGVPDRFSGSGSGTDFTLKISRVEAEDVGVYYCAQNLELWTFGQGTRLEIK |  |  |  |  |  |  | 0.000138 | 2.31e+06 | 0.0597
14 | R18-22D7QH (antibody, human IgG1, kappa, V domains shown, also called chimeric antibody of R18-22D7) VH: EVKLLESGGGLVQPGGSLKLSCAASGFDFSRYWMSWVRQAPGKGLEWIGEINPDSSTINYTPSLKDKFIISRDNAKNTLYLQMSKVRSEDTALYYCARRGGISYAMDYWGQGTSVTVSS VL: DIVITQDELSNPVTSGESVSISCRSSKSLLYKDGKTYLNWFLQRPGQSPQLLIYLMSTRASGVSDRFSGSGSGTDFTLEISRVKAEDVGVYYCQQLVEYPRTFGGGTKLEIKR | 3.54 | 0.00127 | 357000 | 0.0683 | 0.03 | 0.00893 |  |  | 
15 | R3-16A10QH (antibody, human IgG1, kappa, V domains shown, also called chimeric antibody of R3-16A10) VH: EVKLEESGPELVKPGASVKISCKTSGYAFSDSWMNWVKQRPGQGLEWIGRIYPGDGDTQYNGKVKGKATLTADKSSSTAYMQVSSLTSVDSAVYFCAREGGMITSSGYYHALDYWGQGTSVTVSS VL: DIVMTQSPASLAVSLGQRTTISCRASESVDSYGNSFLNWYQQKPGQPPKVLIYLASNLESGVPARFSGSGSRTDFTLIIDPVEADDAATYYCQQNNEDPTFGGGTKLEIKR |  | 2.69e-05 | 537000 | 0.0258 | 0.0118 | 0.0726 |  |  | 
16 | R3-38B6QH (antibody, human IgG1, kappa, V domains shown, also called chimeric antibody of R3-38B6) VH: QVQLEESGPELVKPGASVKISCKASGYAFSSSWMNWVKQRPGQGLEWIGRIYPGDGDTQYHGKVKGKATLTADKSSSTAYMQVSSLTSVDSAVYFCAREGGMITSNGYYHALDYWGQGTSVTVSS VL: DIVMTQTTASLAVSQGQRATISCSASESVDSYGNSFMNWYQQKPGQPPKVLIYLASNLESGVPARFSGSGSRTDFTLTIDPVEADDAATYYCQQNNEDPTFGGGTKLEIKR | 0.061 | 3.02e-05 | 495000 | 0.0733 | 0.0176 |  |  |  | 
